The target of test [1] is T1, Pseudomonas aeruginosa lectin PA-IL (Pseudomonas aeruginosa, UniProt Q05097 2-122).
T1 sequence (looked up): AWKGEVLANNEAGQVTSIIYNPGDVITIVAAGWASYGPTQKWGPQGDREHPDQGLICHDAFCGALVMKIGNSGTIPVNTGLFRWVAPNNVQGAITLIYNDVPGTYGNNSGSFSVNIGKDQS
The experiment in a line: cell-based or functional assay.

Test [2] concerns the target Pseudomonas aeruginosa lectin PA-IIL (Pseudomonas aeruginosa). The experiment in a line: cell-based or functional assay.

These results are taken from patent US20120283173A1 (UNIVERSITATSKLINIKUM HAMBURG EPPENDORF, published 2012).

In the case of TVFHFRLL [peptide sHNK-1 (scrambled version of pHNK-1)], the “IC50 of inhibition of the PA-IL-induced decrease of ciliary beat frequency (CBF)” value in test [1] is 0.968 mM.

Take FLHTRLFV [HNK-1 mimetic peptide pHNK-1]: the “IC50 of inhibition of the PA-IL-induced decrease of ciliary beat frequency (CBF)” value in test [1] was determined as 0.484 mM. The “IC50 of inhibition of the PA-IIL-induced decrease of ciliary beat frequency (CBF)” value in test [2] was determined as 0.968 mM.
